Results as given in patent publication US20230381333A1 (HANMI PHARM, published 2023).
Bridge positions count the residues as written; N and C are the ends. Square brackets hold non-standard residues; d marks the D form. Ends that are not written are not given here. * marks the point of attachment. Acetyl(2-(4-imidazolyl)) = O=C(Cc1c[nH]cn1)*; Aib = CC(C)(N)C(=O)O

T1: human GIP receptor (human, UniProt P48546 22-466)
T1 sequence (looked up): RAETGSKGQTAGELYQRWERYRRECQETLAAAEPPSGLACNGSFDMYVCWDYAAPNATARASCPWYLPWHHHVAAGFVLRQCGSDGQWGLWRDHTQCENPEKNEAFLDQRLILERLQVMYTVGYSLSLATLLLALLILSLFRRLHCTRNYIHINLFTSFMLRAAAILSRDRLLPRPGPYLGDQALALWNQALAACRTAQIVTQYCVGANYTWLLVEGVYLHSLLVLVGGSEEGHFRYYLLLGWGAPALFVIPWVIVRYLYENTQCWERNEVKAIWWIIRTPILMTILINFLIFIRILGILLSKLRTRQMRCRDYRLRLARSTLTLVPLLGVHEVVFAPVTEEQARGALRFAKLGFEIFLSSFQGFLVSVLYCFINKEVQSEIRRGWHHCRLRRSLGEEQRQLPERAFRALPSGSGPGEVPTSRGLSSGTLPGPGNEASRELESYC


molecular target: human GCG receptor (human, UniProt P47871 26-477); test: cell-based or functional assay
Sequence (P47871 26-477): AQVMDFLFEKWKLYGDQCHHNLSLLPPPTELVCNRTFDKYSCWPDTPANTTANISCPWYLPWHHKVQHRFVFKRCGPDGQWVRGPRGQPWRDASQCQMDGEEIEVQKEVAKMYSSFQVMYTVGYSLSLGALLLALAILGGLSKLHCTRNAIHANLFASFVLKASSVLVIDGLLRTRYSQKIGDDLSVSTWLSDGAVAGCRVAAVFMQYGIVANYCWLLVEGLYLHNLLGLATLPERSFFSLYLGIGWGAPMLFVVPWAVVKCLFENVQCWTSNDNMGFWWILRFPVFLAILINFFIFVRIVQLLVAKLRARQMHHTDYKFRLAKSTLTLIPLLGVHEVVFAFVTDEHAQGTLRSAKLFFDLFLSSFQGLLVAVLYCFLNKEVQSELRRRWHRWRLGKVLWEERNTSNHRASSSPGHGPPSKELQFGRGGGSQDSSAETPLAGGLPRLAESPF

Row | Binder | In vitro activity compared to native-type peptide (%), vs Glucagon
1 | {Acetyl(2-(4-imidazolyl))}-[Aib]QGTFTSDYSKYLDEKRQKEFVNWLLAQC (bridge 15-19) [triple agonist of SEQ ID NO: 86] | 0.4%
2 | {Acetyl(2-(4-imidazolyl))}-[Aib]QGTFTSDYSKYLDEKRQKEFVQWLLNTKC (bridge 15-19) [triple agonist of SEQ ID NO: 88] | 0.3%
3 | {Acetyl(2-(4-imidazolyl))}-[Aib]QGTFTSDYSKYLDEKRQKEFVQWLLNTC (bridge 15-19) [triple agonist of SEQ ID NO: 81] | 0.3%
4 | {Acetyl(2-(4-imidazolyl))}-[Aib]QGTFTSDYSKYLDECRAKEFVQWLLDHHPSSGQPPPS (bridge 15-19) [triple agonist of SEQ ID NO: 73] | 5.4%
5 | H[Aib]QGTFTSDYSKYLDEKRQKEFVQWLLDTKC (bridge 16-20) [triple agonist of SEQ ID NO: 78] | 14%
6 | Y[Aib]QGTFTSDYSKYLDEKAAKDFVQWLLDHHPSSGQPPPSC (bridge 16-20) [triple agonist of SEQ ID NO: 77] | 12.2%
7 | Y[Aib]QGTFTSDCSKYLDERAAKDFVQWLLDHHPSSGQPPPS (bridge 16-20) [triple agonist of SEQ ID NO: 72] | 1%
8 | {Acetyl(2-(4-imidazolyl))}-[Aib]QGTFTSDYSKYLDEKRQKEFVQWLLDTC (bridge 15-19) [triple agonist of SEQ ID NO: 82] | 1.1%
9 | {Acetyl(2-(4-imidazolyl))}-[Aib]QGTFTSDYSIAMDEIHQKDFVNWLLAQKC (bridge 15-19) [triple agonist of SEQ ID NO: 92] | < 0.1%
10 | {Acetyl(2-(4-imidazolyl))}-[Aib]QGTFTSDYSKYLDEKRQKEFVNWLLAQKC (bridge 15-19) [triple agonist of SEQ ID NO: 93] | 0.3%
11 | H[Aib]QGTFTSDVSKYLDGQAAQEFVAWLLAGC [triple agonist of SEQ ID NO: 9] | 0.13%
12 | {Acetyl(2-(4-imidazolyl))}-[Aib]EGTFTSDYSIAMDEIHQKDFVNWLLAQC (bridge 15-19) [triple agonist of SEQ ID NO: 83] | 1.3%
13 | H[Aib]EGTFTSDYSIAMDEIHQKDFVDWLLAEKC (bridge 16-20) [triple agonist of SEQ ID NO: 80] | 0%
14 | {Acetyl(2-(4-imidazolyl))}-[Aib]EGTFTSDYSIAMDEIHQKDFVDWLLAEC (bridge 15-19) [triple agonist of SEQ ID NO: 84] | < 0.1%

molecular target: human GLP-1 receptor (human, UniProt P43220 24-463); test: cell-based or functional assay

Row | Binder | In vitro activity compared to native-type peptide (%), vs GLP-1
15 | {Acetyl(2-(4-imidazolyl))}-[Aib]QGTFTSDYSKYLDEKRQKEFVNWLLAQC (bridge 15-19) [triple agonist of SEQ ID NO: 86] | 28.4%
16 | {Acetyl(2-(4-imidazolyl))}-[Aib]QGTFTSDYSKYLDEKRQKEFVQWLLNTKC (bridge 15-19) [triple agonist of SEQ ID NO: 88] | 9.6%
17 | {Acetyl(2-(4-imidazolyl))}-[Aib]QGTFTSDYSKYLDEKRQKEFVQWLLNTC (bridge 15-19) [triple agonist of SEQ ID NO: 81] | 7.8%
18 | {Acetyl(2-(4-imidazolyl))}-[Aib]QGTFTSDYSKYLDECRAKEFVQWLLDHHPSSGQPPPS (bridge 15-19) [triple agonist of SEQ ID NO: 73] | 22.6%
19 | H[Aib]QGTFTSDYSKYLDEKRQKEFVQWLLDTKC (bridge 16-20) [triple agonist of SEQ ID NO: 78] | 51%
20 | Y[Aib]QGTFTSDYSKYLDEKAAKDFVQWLLDHHPSSGQPPPSC (bridge 16-20) [triple agonist of SEQ ID NO: 77] | 38.7%
21 | Y[Aib]QGTFTSDCSKYLDERAAKDFVQWLLDHHPSSGQPPPS (bridge 16-20) [triple agonist of SEQ ID NO: 72] | 11.5%
22 | {Acetyl(2-(4-imidazolyl))}-[Aib]QGTFTSDYSKYLDEKRQKEFVQWLLDTC (bridge 15-19) [triple agonist of SEQ ID NO: 82] | 9.5%
23 | {Acetyl(2-(4-imidazolyl))}-[Aib]QGTFTSDYSIAMDEIHQKDFVNWLLAQKC (bridge 15-19) [triple agonist of SEQ ID NO: 92] | 0.8%
24 | {Acetyl(2-(4-imidazolyl))}-[Aib]QGTFTSDYSKYLDEKRQKEFVNWLLAQKC (bridge 15-19) [triple agonist of SEQ ID NO: 93] | 5.7%
25 | H[Aib]QGTFTSDVSKYLDGQAAQEFVAWLLAGC [triple agonist of SEQ ID NO: 9] | 32.1%
26 | {Acetyl(2-(4-imidazolyl))}-[Aib]EGTFTSDYSIAMDEIHQKDFVNWLLAQC (bridge 15-19) [triple agonist of SEQ ID NO: 83] | 47.3%
27 | H[Aib]EGTFTSDYSIAMDEIHQKDFVDWLLAEKC (bridge 16-20) [triple agonist of SEQ ID NO: 80] | 8.1%
28 | {Acetyl(2-(4-imidazolyl))}-[Aib]EGTFTSDYSIAMDEIHQKDFVDWLLAEC (bridge 15-19) [triple agonist of SEQ ID NO: 84] | 4.2%

molecular target: T1, human GIP receptor; test: cell-based or functional assay

Row | Binder | In vitro activity compared to native-type peptide (%), vs GIP
29 | {Acetyl(2-(4-imidazolyl))}-[Aib]QGTFTSDYSKYLDEKRQKEFVNWLLAQC (bridge 15-19) [triple agonist of SEQ ID NO: 86] | 0.2%
30 | {Acetyl(2-(4-imidazolyl))}-[Aib]QGTFTSDYSKYLDEKRQKEFVQWLLNTKC (bridge 15-19) [triple agonist of SEQ ID NO: 88] | < 0.1%
31 | {Acetyl(2-(4-imidazolyl))}-[Aib]QGTFTSDYSKYLDEKRQKEFVQWLLNTC (bridge 15-19) [triple agonist of SEQ ID NO: 81] | < 0.1%
32 | {Acetyl(2-(4-imidazolyl))}-[Aib]QGTFTSDYSKYLDECRAKEFVQWLLDHHPSSGQPPPS (bridge 15-19) [triple agonist of SEQ ID NO: 73] | 3%
33 | H[Aib]QGTFTSDYSKYLDEKRQKEFVQWLLDTKC (bridge 16-20) [triple agonist of SEQ ID NO: 78] | 0.12%
34 | Y[Aib]QGTFTSDYSKYLDEKAAKDFVQWLLDHHPSSGQPPPSC (bridge 16-20) [triple agonist of SEQ ID NO: 77] | 35.5%
35 | Y[Aib]QGTFTSDCSKYLDERAAKDFVQWLLDHHPSSGQPPPS (bridge 16-20) [triple agonist of SEQ ID NO: 72] | 1.6%
36 | {Acetyl(2-(4-imidazolyl))}-[Aib]QGTFTSDYSKYLDEKRQKEFVQWLLDTC (bridge 15-19) [triple agonist of SEQ ID NO: 82] | < 0.1%
37 | {Acetyl(2-(4-imidazolyl))}-[Aib]QGTFTSDYSIAMDEIHQKDFVNWLLAQKC (bridge 15-19) [triple agonist of SEQ ID NO: 92] | 0.4%
38 | {Acetyl(2-(4-imidazolyl))}-[Aib]QGTFTSDYSKYLDEKRQKEFVNWLLAQKC (bridge 15-19) [triple agonist of SEQ ID NO: 93] | 0.7%
39 | H[Aib]QGTFTSDVSKYLDGQAAQEFVAWLLAGC [triple agonist of SEQ ID NO: 9] | < 0.1%
40 | {Acetyl(2-(4-imidazolyl))}-[Aib]EGTFTSDYSIAMDEIHQKDFVNWLLAQC (bridge 15-19) [triple agonist of SEQ ID NO: 83] | 0.4%
41 | H[Aib]EGTFTSDYSIAMDEIHQKDFVDWLLAEKC (bridge 16-20) [triple agonist of SEQ ID NO: 80] | 0.1%
42 | {Acetyl(2-(4-imidazolyl))}-[Aib]EGTFTSDYSIAMDEIHQKDFVDWLLAEC (bridge 15-19) [triple agonist of SEQ ID NO: 84] | < 0.1%
